Test results taken from IntAct's records for PubMed 19194460.

B1: Decapping nuclease din1 (Schizosaccharomyces pombe (strain ATCC 38366 / 972)), O13836 (parent)
chain: MLREFSFYDVPPAHVPPVSEPLEIACYSLSRDRELLLDDSKLSYYYPPPLFSDLNTGFPNRFHPPKSDPDPISIVKDVLMTKGIQMNSSFLTWRGLITKIMCAPLDPRNHWETYLVMDPTSGIIMMEERTRSETSYANQDRMCYWGYKFEAISTLPEIWDACSRDQIEQRDNQDVVPDEQYCSIVKINIGKSKLILAGEVDCIWDKKPCSAKESDVHSDDGTIEEDASNAENPNLHYVELKTSKKYPLENYGMRKKLLKYWAQSFLLGIGRIIIGFRDDNGILIEMKELFTHQIPKMLRPYFKPNDWTPNRLLVVLEHALEWIKQTVKQHPPSTEFTLSYTGGSKLVLRQII
partner: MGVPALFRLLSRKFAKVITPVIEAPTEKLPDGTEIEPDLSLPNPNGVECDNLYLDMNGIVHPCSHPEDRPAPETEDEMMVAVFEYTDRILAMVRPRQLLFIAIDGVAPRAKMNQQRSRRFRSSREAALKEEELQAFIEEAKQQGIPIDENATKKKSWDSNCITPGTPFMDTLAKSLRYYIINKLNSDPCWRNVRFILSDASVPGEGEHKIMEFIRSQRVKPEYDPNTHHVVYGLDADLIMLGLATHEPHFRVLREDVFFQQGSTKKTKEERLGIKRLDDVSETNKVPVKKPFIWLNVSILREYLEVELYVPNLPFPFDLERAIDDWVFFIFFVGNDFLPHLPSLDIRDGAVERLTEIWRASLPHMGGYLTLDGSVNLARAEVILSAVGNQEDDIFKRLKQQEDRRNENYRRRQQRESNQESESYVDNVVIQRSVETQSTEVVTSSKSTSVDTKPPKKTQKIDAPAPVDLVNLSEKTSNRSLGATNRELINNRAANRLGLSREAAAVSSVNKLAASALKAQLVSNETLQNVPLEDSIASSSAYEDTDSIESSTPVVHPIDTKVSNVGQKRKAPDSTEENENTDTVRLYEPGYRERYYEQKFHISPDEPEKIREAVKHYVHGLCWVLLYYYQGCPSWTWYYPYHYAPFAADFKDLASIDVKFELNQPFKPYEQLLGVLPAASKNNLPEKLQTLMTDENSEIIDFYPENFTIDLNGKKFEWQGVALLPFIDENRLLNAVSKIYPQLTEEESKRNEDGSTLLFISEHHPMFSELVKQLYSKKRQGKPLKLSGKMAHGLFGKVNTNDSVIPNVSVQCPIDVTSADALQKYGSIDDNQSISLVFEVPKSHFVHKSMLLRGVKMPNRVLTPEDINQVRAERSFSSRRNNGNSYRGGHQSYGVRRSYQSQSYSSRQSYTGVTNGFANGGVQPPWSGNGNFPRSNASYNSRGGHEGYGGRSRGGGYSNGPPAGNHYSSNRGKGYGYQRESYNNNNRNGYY

Variants of: B1
Conditions: with xrn2_schpo dhp1, P40848

Variant | effect of a mutation on the interaction
W204A | decreasing interaction
R164A | decreasing interaction
W159A | decreasing interaction
